Experiments:
Format in all cases: biochemical
[1] = OHB reductase activity, NADH absorption at 340 nm
Experimental: (§1) Enzymatic assays: The reaction mixture contained 60 mM Hepes (pH 7), 50 mM potassium chloride, 5 mM MgCl2, 0.25 mM NADH, (optionally 5 mM fructose-1,6-bisphosphate) (all products from Sigma), and appropriate amounts of purified malate or lactate dehydrogenase or cell extract. Reactions were started by adding appropriate amounts of 2-oxo-4-hydroxybutyrate (OHB), pyruvate, or oxaloacetate (OAA). Enzymatic assays were carried out at 37° C. in 96-well flat bottomed microtiter plates in a final volume of 250 μL. The reactions were followed by the characteristic absorption of NADH at 340 nm (εNADH=6.22 mM^−1 cm^−1) in a microplate reader (BioRad 680XR).
OHB was synthesized by incubating 125 mM homoserine with snake venom (L)-amino acid oxidase (1.25 U/mL, Sigma) and catalase (4400 U/mL, Sigma) in 100 mM Tris buffer at pH 7.8 for 90 min at 37° C. Subsequently, the reaction mixture was purified on an Amicon™ Ultra centrifugal filter with a cut-off of 10 kDa to eliminate the enzymes (method adapted from Wellner & Lichtenberg, 1971).
OHB was quantified by mixing 100 μL of the tested solution with 1 mL of a solution containing 1 M sodium arsenate and 1 M boric acid at pH 6.5. The mixture was incubated at room temperature for 30 min and the absorbance at 325 nm was used to quantify OHB. The relation between absorbance and concentration of the ketone was calibrated using pyruvate solutions of known concentrations (method adapted from (Wellner & Lichtenberg, 1971)). The typical OHB yield of the method was 90%.

[2] = oxaloacetate reductase activity, NADH absorption at 340 nm; details: for Max. specific activity, OAA: measured at 0.5 mM oxaloacetate
Experimental: as §1

[3] = pyruvate reductase activity, NADH absorption at 340 nm; details: natural substrate of Ldh: pyruvate; purified enzyme, 37° C., pH 7
Experimental: as §1

[4] = E. coli Mdh mutants, measured at 20 mM OHB
[5] = when not saturated, activity estimated at 20 mM substrate

| Molecule | Max. specific activity, OHB [1, 4] | Max. specific activity, OAA ([2]; E. coli Mdh mutants) | also measured |
| --- | --- | --- | --- |
| Ec-Mdh: (L)-malate dehydrogenase from Escherichia coli, SEQ ID NO: 2 (protein, listed as Escherichia coli) MKVAVLGAAGGIGQALALLLKTQLPSGSELSLYDIAPVTPGVAVDLSHIPTAVKIKGFSGEDATPALEGADVVLISAGVARKPGMDRSDLFNVNAGIVKNLVQQVAKTCPKACIGIITNPVNTTVAIAAEVLKKAGVYDKNKLFGVTTLDIIRSNTFVAELKGKQPGEVEVPVIGGHSGVTILPLLSQVPGVSFTEQEVADLTKRIQNAGTEVVEAKAGGGSATLSMGQAAARFGLSLVRALQGEQGVVECAYVEGDGQYARFFSQPLLLGKNGVEERKSIGTLSAFEQNALEGMLDTLKKDIALGEEFVNK | 0.01 µmol/mg/min | 95 µmol/mg/min | OHB reductase activity, in words [1]: very minor activity; Max. specific activity, OHB [1, 5]: 0.01 µmol/mg/min; Max. specific activity, natural substrate ([2]; natural substrate of Mdh: oxaloacetate, purified enzyme, 37° C., pH 7): 95.6 µmol/mg/min |
| R81A M85Q I12V: E. coli malate dehydrogenase mutant, SEQ ID No. 108 (protein, listed as Escherichia coli) MKVAVLGAAGGVGQALALLLKTQLPSGSELSLYDIAPVTPGVAVDLSHIPTAVKIKGFSGEDATPALEGADVVLISAGVAAKPGQDRSDLFNVNAGIVKNLVQQVAKTCPKACIGIITNPVNTTVAIAAEVLKKAGVYDKNKLFGVTTLDIIRSNTFVAELKGKQPGEVEVPVIGGHSGVTILPLLSQVPGVSFTEQEVADLTKRIQNAGTEVVEAKAGGGSATLSMGQAAARFGLSLVRALQGEQGVVECAYVEGDGQYARFFSQPLLLGKNGVEERKSIGTLSAFEQNALEGMLDTLKKDIALGEEFVNK | 18.9 µmol/mg/min | 1.84 µmol/mg/min | – |
| R81A 112V: E. coli malate dehydrogenase mutant, SEQ ID No. 115 as printed (protein, listed as Escherichia coli) MKVAVLGAAGGVGQALALLLKTQLPSGSELSLYDIAPVTPGVAVDLSHIPTAVKIKGFSGEDATPALEGADVVLISAGVAAKPGMDRSDLFNVNAGIVKNLVQQVAKTCPKACIGIITNPVNTTVAIAAEVLKKAGVYDKNKLFGVTTLDIIRSNTFVAELKGKQPGEVEVPVIGGHSGVTILPLLSQVPGVSFTEQEVADLTKRIQNAGTEVVEAKAGGGSATLSMGQAAARFGLSLVRALQGEQGVVECAYVEGDGQYARFFSQPLLLGKNGVEERKSIGTLSAFEQNALEGMLDTLKKDIALGEEFVNK | 4.9 µmol/mg/min | 0.5 µmol/mg/min | – |
| R81A G179D: E. coli malate dehydrogenase mutant, SEQ ID No. 112 (protein, listed as Escherichia coli) MKVAVLGAAGGIGQALALLLKTQLPSGSELSLYDIAPVTPGVAVDLSHIPTAVKIKGFSGEDATPALEGADVVLISAGVAAKPGMDRSDLFNVNAGIVKNLVQQVAKTCPKACIGIITNPVNTTVAIAAEVLKKAGVYDKNKLFGVTTLDIIRSNTFVAELKGKQPGEVEVPVIGGHSDVTILPLLSQVPGVSFTEQEVADLTKRIQNAGTEVVEAKAGGGSATLSMGQAAARFGLSLVRALQGEQGVVECAYVEGDGQYARFFSQPLLLGKNGVEERKSIGTLSAFEQNALEGMLDTLKKDIALGEEFVNK | 4.16 µmol/mg/min | 0.37 µmol/mg/min | – |
| R81A M85E I12V: E. coli malate dehydrogenase mutant, SEQ ID No. 110 (protein, listed as Escherichia coli) MKVAVLGAAGGVGQALALLLKTQLPSGSELSLYDIAPVTPGVAVDLSHIPTAVKIKGFSGEDATPALEGADVVLISAGVAAKPGEDRSDLFNVNAGIVKNLVQQVAKTCPKACIGIITNPVNTTVAIAAEVLKKAGVYDKNKLFGVTTLDIIRSNTFVAELKGKQPGEVEVPVIGGHSGVTILPLLSQVPGVSFTEQEVADLTKRIQNAGTEVVEAKAGGGSATLSMGQAAARFGLSLVRALQGEQGVVECAYVEGDGQYARFFSQPLLLGKNGVEERKSIGTLSAFEQNALEGMLDTLKKDIALGEEFVNK | 12.54 µmol/mg/min | 2.2 µmol/mg/min | – |
| R81A M85E: E. coli malate dehydrogenase mutant, SEQ ID No. 106 (protein, listed as Escherichia coli) MKVAVLGAAGGIGQALALLLKTQLPSGSELSLYDIAPVTPGVAVDLSHIPTAVKIKGFSGEDATPALEGADVVLISAGVAAKPGEDRSDLFNVNAGIVKNLVQQVAKTCPKACIGIITNPVNTTVAIAAEVLKKAGVYDKNKLFGVTTLDIIRSNTFVAELKGKQPGEVEVPVIGGHSGVTILPLLSQVPGVSFTEQEVADLTKRIQNAGTEVVEAKAGGGSATLSMGQAAARFGLSLVRALQGEQGVVECAYVEGDGQYARFFSQPLLLGKNGVEERKSIGTLSAFEQNALEGMLDTLKKDIALGEEFVNK | 3 µmol/mg/min | 1 µmol/mg/min | – |
| R81A D86S: E. coli malate dehydrogenase mutant, SEQ ID No. 1114 as printed (protein, UniProt P61889 1-312, looked up, variant R81A D86S) Malate dehydrogenase: MKVAVLGAAGGIGQALALLLKTQLPSGSELSLYDIAPVTPGVAVDLSHIPTAVKIKGFSGEDATPALEGADVVLISAGVAAKPGMSRSDLFNVNAGIVKNLVQQVAKTCPKACIGIITNPVNTTVAIAAEVLKKAGVYDKNKLFGVTTLDIIRSNTFVAELKGKQPGEVEVPVIGGHSGVTILPLLSQVPGVSFTEQEVADLTKRIQNAGTEVVEAKAGGGSATLSMGQAAARFGLSLVRALQGEQGVVECAYVEGDGQYARFFSQPLLLGKNGVEERKSIGTLSAFEQNALEGMLDTLKKDIALGEEFVNK | 14.6 µmol/mg/min | 0.67 µmol/mg/min | – |
| R81A M85Q: E. coli malate dehydrogenase mutant, SEQ ID No. 104 (protein, listed as Escherichia coli) MKVAVLGAAGGIGQALALLLKTQLPSGSELSLYDIAPVTPGVAVDLSHIPTAVKIKGFSGEDATPALEGADVVLISAGVAAKPGQDRSDLFNVNAGIVKNLVQQVAKTCPKACIGIITNPVNTTVAIAAEVLKKAGVYDKNKLFGVTTLDIIRSNTFVAELKGKQPGEVEVPVIGGHSGVTILPLLSQVPGVSFTEQEVADLTKRIQNAGTEVVEAKAGGGSATLSMGQAAARFGLSLVRALQGEQGVVECAYVEGDGQYARFFSQPLLLGKNGVEERKSIGTLSAFEQNALEGMLDTLKKDIALGEEFVNK | 4.99 µmol/mg/min | 0.5 µmol/mg/min | – |
| R81A G179D D86S: E. coli malate dehydrogenase mutant, SEQ ID No. 118 (protein, listed as Escherichia coli) MKVAVLGAAGGIGQALALLLKTQLPSGSELSLYDIAPVTPGVAVDLSHIPTAVKIKGFSGEDATPALEGADVVLISAGVAAKPGMSRSDLFNVNAGIVKNLVQQVAKTCPKACIGIITNPVNTTVAIAAEVLKKAGVYDKNKLFGVTTLDIIRSNTFVAELKGKQPGEVEVPVIGGHSDVTILPLLSQVPGVSFTEQEVADLTKRIQNAGTEVVEAKAGGGSATLSMGQAAARFGLSLVRALQGEQGVVECAYVEGDGQYARFFSQPLLLGKNGVEERKSIGTLSAFEQNALEGMLDTLKKDIALGEEFVNK | 19 µmol/mg/min | 0.54 µmol/mg/min | Km, OHB ([1]; E. coli Mdh mutants, ns = not saturated up to 50 mM OHB): ns; Km, OAA ([2]; E. coli Mdh mutants, ns = not saturated up to 0.5 mM oxaloacetate): ns |
| Ll-Ldh: (L)-lactate dehydrogenase of Lactococcus lactis, SEQ ID NO: 6 (protein, listed as Lactococcus lactis) MADKQRKKVILVGDGAVGSSYAFALVNQGIAQELGIVDLFKEKTQGDAEDLSHALAFTSPKKIYSADYSDASDADLVVLTSGAPQKPGETRLDLVEKNLRITKDVVTKIVASGFKGIFLVAANPVDILTYATWKFSGFPKNRVVGSGTSLDTARFRQALAEKVDVDARSIHAYIMGEHGDSEFAVWSHANVAGVKLEQWFQENDYLNEAEIVELFESVRDAAYSIIAKKGATFYGVAVALARITKAILDDEHAVLPVSVFQDGQYGVSDCYLGQPAVVGAEGVVNPIHIPLNDAEMQKMEASGAQLKAIIDEAFAKEEFASAVKN | – | – | Max. specific activity, natural substrate [3]: 184 µmol/mg/min; Max. specific activity, OHB [1, 5]: 18 µmol/mg/min |
| R81A: E. coli malate dehydrogenase mutant R81A, SEQ ID No. 102 (protein, listed as Escherichia coli) MDHRAMKVAVLGAAGGIGQALALLLKTQLPSGSELSLYDIAPVTPGVAVDLSHIPTAVKIKGFSGEDATPALEGADVVLISAGVAAKPGMDRSDLFNVNAGIVKNLVQQVAKTCPKACIGIITNPVNTTVAIAAEVLKKAGVYDKNKLFGVTTLDIIRSNTFVAELKGKQPGEVEVPVIGGHSGVTILPLLSQVPGVSFTEQEVADLTKRIQNAGTEVVEAKAGGGSATLSMGQAAARFGLSLVRALQGEQGVVECAYVEGDGQYARFFSQPLLLGKNGVEERKSIGTLSAFEQNALEGMLDTLKKDIALGEEFVNK | 1.8 µmol/mg/min | 1.16 µmol/mg/min | – |

From patent US11505811B2, “Method for the preparation of 2,4-dihydroxybutyrate” (ADISSEO FRANCE S.A.S., priority 2012, dated 2022)
